Reference: US12006368 (SURROZEN OPERATING, dated 2024)
Where a chain is given by its changes, count along the chain named.

Legend:
[1] = biological target: Fzd2 cysteine rich domain (CRD), C-terminally biotinylated (human, UniProt Q14332 24-155); assay: BLI; *=Kd <100 nM
Method: (§1) Binding kinetics of antibody fragments to a variety of Fzd cysteine rich domain (CRD) protein targets (Fzd1, Fzd2, Fzd3, Fzd4, Fzd5, Fzd6, Fzd7, Fzd8, Fzd9 and/or Fzd10 CRDs) was determined by bio-layer interferometry (BLI) using Octet Red 96 (PALL ForteBio, Fremont, CA) instruments at 30° C., 1000 rpm with streptavidin (SA) biosensors. C-terminal biotinylated Fzd CRD recombinant protein was diluted to 20 nM in the running buffer (PBS, 0.05% Tween-20, 0.5% BSA, pH 7.2) and captured to the SA biosensor until coupling length reached 0.2 nm. Following capture of the Fzd CRD, the SA biosensor with captured biotinylated-Fzd CRD was dipped into wells containing the relevant antibody fragment at […] (0, 1.37, 4.12, 12.4, 37, 111.1, 333.3, 1000 nM) in running buffer, plus a well with only running buffer as a reference channel. […] was determined by global fitting, 1:1 binding model according to manufacturer recommended settings.
(§2) Table 1B provides clone IDs, the sequence identifier number of the antibody heavy chain fragment and/or light chain fragment, if present, for illustrative clones. In certain embodiments, the Fzd binding domain is an Fab or was derived from an Fab, so the heavy chain of Table 1B includes VH and CH1 sequence, but not CH2 or CH3 sequences. In certain embodiments, the Fzd binding domain is a VHH or sdAb® or was derived from a VHH or sdAb, so Table 1B includes the VHH domain. […] The Kd values were determined by BLI as described above. Blank entries denote that the binding to the specific Fzd receptor has not yet been determined. The entry of "n.b." indicates no binding.

[2] = biological target: T1, Fzd1 cysteine rich domain (CRD), C-terminally biotinylated (human, UniProt Q9UP38 101-230); assay: BLI; *=Kd <100 nM
Method: as §1, §2

[3] = biological target: T2, Fzd7 cysteine rich domain (CRD), C-terminally biotinylated (human, UniProt O75084 36-165); assay: BLI; *=Kd <100 nM
Method: as §1, §2

[4] = biological target: T1, Fzd1 cysteine rich domain (CRD), …; assay: BLI; *=Kd <=100 nM
Method: as §1
(§3) One antibody fragment, clone 001S-A04, was selected for alanine-scanning mutagenesis of CDRs, and the respective Fzd1 binding affinities of the various mutants were determined by Octet BLI as described in Example 1.

[5] = biological target: T1, Fzd1 cysteine rich domain (CRD), …; assay: BLI
Method: as §1, §3

Fzd5 = biological target: T3, Fzd5 (UniProt Q13467 27-152, limits assumed); assay: phage ELISA on immobilised antigen
T3 construct: immobilised target antigen of the phage ELISA and the Fzd named in specificity sentences; also called Frizzled 5; Fz5
T3 sequence (looked up): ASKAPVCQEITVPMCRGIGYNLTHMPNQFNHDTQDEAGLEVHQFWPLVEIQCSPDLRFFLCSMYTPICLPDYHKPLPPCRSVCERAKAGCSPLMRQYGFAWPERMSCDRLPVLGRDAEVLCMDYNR
Method: (§4) Detection of bound phage was determined […] by turnover of TMB substrate (Thermo Fisher Scientific, Waltham, MA) at […] by anti-M13-HRP antibody (GE Healthcare, Pittsburgh, PA). Clones were identified as binding to a Fzd receptor when the fold OD 450 nm over background was greater than a threshold level.

[6] = biological target: T4, hFzd5 CRD-Xtal (hFzd5_Q13467_27-152) (human, UniProt Q13467 27-152); assay: size-exclusion chromatography of the Fzd CRD_Xtal:Fab mixture
T4 construct: complex incubated with carboxypeptidase A and B before crystallisation
T4 sequence: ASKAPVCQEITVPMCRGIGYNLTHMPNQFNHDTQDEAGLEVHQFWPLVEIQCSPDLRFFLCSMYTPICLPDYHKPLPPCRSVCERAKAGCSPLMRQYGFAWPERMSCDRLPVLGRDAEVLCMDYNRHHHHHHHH
Method: (§5) Purfied Fzd CRD_Xtal and Fab binders were mixed at 1.1:1 molar ratio (little excess of the smaller molecular weight protein), and incubated with carboxy-peptidase A and B at a w/w ratio of 100:1 for over-night at 4° C. Complex formation was confirmed by observation of a single-major peak on SuperdexS200 Increase (10/300 GL) column pre-equilibrated in HBS. Fractions containing complexes were further checked by SDS-PAGE, and concentrated to a range from 10 to 55 mg/mL for crystallization screens. Initial crystallization screen, using commercially available MCSG1, MCSG2, MCSG3, MCSG4, PACT (Molecular Dimensions), PEGs I, and PEGs II (Qiagen) screen, and optimization by grid-screens or microseed matrix screen [MMS; Microseed matrix screening for optimization in protein crystallization: what have we learned? D'Arcy, A., Bergfors, T., Cowan-Jacob S. W., and Marshd, M. Acta Cryst. F70, 1117-1126 (2014)]. were performed using Mosquito (TTP LabTech) liquid handler, and equilibrated at 18° C. inside an EchoTherm incubator (Torrey Pines Scientific). 96-well plate crystal screening experiments were periodically monitored manually via a DiscoveryV20 stereomicroscope (Zeiss), and crystals were frozen for data collection by plunging into liquid nitrogen in the presence of various cryo-protectants (typically 15 to 30% v/v of glycerol or ethyleneglycol). X-ray diffraction datasets were collected at the Berkeley Center for Structural Biology at the Advanced Light Source (ALS), Berkeley CA, and processed with XDS [Kabsch, W. XDS. Acta Cryst. D66, 125-132 (2010)], and xdsme [Legrand, P. XDSME: XDS Made Easier (2017) GitHub repository, https://github-.com/legrandp/xdsme DOI 10.5281/zenodo.837885]. programs. Structure of Fzd:Fab complexes were determined by molecular replacement method using Phaser with constant and variable domains of related Fabs are template [Phaser crystallographic software. A. J. McCoy, R. W. Grosse-Kunstleve, P. D. Adams, M. D. Winn, L. C. Storoni, and R. J. Read. J Appl Crystallogr 40, 658-674 (2007)], followed by refinement and validation by MolProbity as implemented in Phenix [PHENIX: a comprehensive Python-based system for macromolecular structure solution.

[7] = biological target: T5, hFzd3 CRD-Xtal (hFzd3_Q9NPG1_23-148) (human, UniProt Q9NPG1 23-148); assay: as above
T5 construct: complex incubated with carboxypeptidase A and B before crystallisation
T5 sequence: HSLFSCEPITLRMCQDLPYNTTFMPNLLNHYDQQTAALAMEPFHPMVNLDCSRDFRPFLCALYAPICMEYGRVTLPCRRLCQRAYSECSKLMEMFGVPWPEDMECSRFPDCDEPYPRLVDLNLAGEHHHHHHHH
Method: as §5

Frizzled 3 = biological target: T6, Frizzled 3 (human, UniProt Q9NPG1 23-148, limits assumed); assay: phage ELISA on immobilised antigen (initial binding)
T6 construct: Target antigen immobilised on plates in the phage ELISA; also called Fzd3; Fz3
T6 sequence (looked up): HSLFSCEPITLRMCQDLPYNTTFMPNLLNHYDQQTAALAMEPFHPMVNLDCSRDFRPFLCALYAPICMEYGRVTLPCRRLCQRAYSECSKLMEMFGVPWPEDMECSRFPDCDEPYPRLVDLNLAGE
Method: as §4

[8] = biological target: T1, Fzd1 cysteine rich domain (CRD), …; assay: summary in Table 3; method not given there
[9] = biological target: T2, Fzd7 cysteine rich domain (CRD), …; assay: summary in Table 3; method not given there
Frizzled 6 = biological target: T7, Frizzled 6 (human, UniProt O60353 19-145, limits assumed); assay: phage ELISA on immobilized antigen (initial binding)
T7 construct: the antigen of the phage ELISA is only called 'target antigen'; also called Fzd6; Fz6
T7 sequence (looked up): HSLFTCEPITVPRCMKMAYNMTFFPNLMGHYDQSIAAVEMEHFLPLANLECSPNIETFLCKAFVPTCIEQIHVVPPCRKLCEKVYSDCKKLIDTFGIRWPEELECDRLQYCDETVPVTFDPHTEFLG
Method: as §4

B1: 001S-A04 (Fab, V domains shown)
VH: EVQLVQSGAEVKKPGASVKVSCKASGYTFTSYGISWVRQAPGQGLEWMGWISAYNGNTNYAQKLQGRVTMTTDTSTSTAYMELRSLRSDDTAVYYCASSKEKATYYYGMDVWGQGTTVTVSS
VL: QAVVLQEPSLSVSPGGTVTLTCGLSSGSVSTNYYPSWYQQTPGQAPRTLIYYTNTRSSDVPERFSGSIVGNKAALTITGAQPDDESVYFCLLYLGRGIWVFGGGTKLTVLG
notes: also called R2M3; WT
Kd [1]: < 100 nM | Kd [2]: < 100 nM | Kd [3]: < 100 nM | KD [4]: ≤ 100 nM

B2: 001S-A04 mutant VHY8A (Fab, V domains shown)
VH: B1 VH with Y106A
VL: B1 VL
binding result [5]: no binding (tested: 1000 nM)

B3: 004S-E05 Fab (Fab, V domains shown)
VH: EVQLVESGGGLVQPGGSLRLSCAASGFTFSTYEMNWVRQAPGKGLEWVSGVSWNGSRTHYVDSVKGRFTISRDNSKNTLYLQLNSLRAEDTAVYYCARGQSEKWWSGLYGMDVWGQGTTVTVSS
VL: DIQMTQSPSSLSASVGDRVTITCRASQGISSALAWYQQKPGKAPKLLIYAASALQSGVPSRFSGSGSGTDFTLTISSLQPEDFATYYCQQTYSTPRTFGPGTKVDIKR
notes: Fab chains as crystallised (heavy chain with hexa-histidine tag); also called 004S-E050
binding result (Fzd5): binds | binding result [6]: binds

B4: 029S-E03 Fab (Fab, V domains shown)
VH: QVQLVQSGAEVKKPGASVKVSCKASGYTFTGYYMHWVRQAPGQGLEWMGWINPNSGNTGYAQKFQGRVTMTRDTSTSTVYMELSSLRSEDTAVYYCARSYYGVIDAFDIWGQGTMVTVSS
VL: DIQMTQSPSSLSASVGDRVTITCRASQSISSYLNWYQQKPGKAPKLLIYAASSLQTGVPSRFSGSGSGTDFTLTISSLQPEDFATYYCQQSFRLPLTFGQGTKVEIKR
notes: heavy chain with C-terminal hexa-histidine tag; carboxypeptidase A and B treated in the complex
binding result [7]: binds

B5: 029S-E03 (Fab, V domains shown)
VH: B4 VH
VL: B4 VL
binding result (Frizzled 3): binds

B6: R2M9 (003S-E07) Fab (Fab, V domains shown)
VH: QVQLVQSGAEVKKPGSSVKVSCKASGYTFTNNFMHWVRQAPGQGLEWMGWINPNSGGTKYAQKFQGRVTITADESTSTAYMELSSLRSEDTAVYYCARSVGEVGATMLGIGVWYWFDPWGQGTLVTVSS
VL: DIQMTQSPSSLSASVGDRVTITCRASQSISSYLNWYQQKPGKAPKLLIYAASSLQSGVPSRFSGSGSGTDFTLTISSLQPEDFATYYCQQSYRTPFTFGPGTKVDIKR
notes: heavy chain entry ends in GSGSG-His6
binding result [8]: binds | binding result [9]: binds

B7: 004S-E09 (antibody, V domains shown)
VH: QVQLVQSGAEVKKPGASVKVSCKASGDTFSNYVISWVRQAPGQGLEWMGRISAYNGYKSYAQNFQGRVTMTRDTSTSTVYMELSSLRSEDTAVYYCARSSGYVGWFDPWGQGTLVTVSS
VL: not shown
binding result (Frizzled 6): binds
